Measured values published in US20030017568A1, “Smooth muscle myosin phosphatase associated kinase” (priority 2001, published 2003).

Tested on: permealized rabbit longitudinal ileum smooth muscle strips
Experiment: Force in permeabilized rabbit longitudinal ileum smooth muscle strips (Ca2+-sensitization)
Protocol: Instead, when rN-ZIP^1-320 kinase is added a 40% increase in muscular force is produced at the same submaximal calcium concentration.

B1: rN-ZIP^1-320 kinase: recombinant 38 kDa GST-fusion protein of the N-terminal region (1-320) of ZIP kinase, expressed in E. coli, constitutively active (protein, UniProt O43293 1-320, looked up, fragment)
chain: MSTFRQEDVEDHYEMGEELGSGQFAIVRKCRQKGTGKEYAAKFIKKRRLSSSRRGVSREEIEREVNILREIRHPNIITLHDIFENKTDVVLILELVSGGELFDFLAEKESLTEDEATQFLKQILDGVHYLHSKRIAHFDLKPENIMLLDKNVPNPRIKLIDFGIAHKIEAGNEFKNIFGTPEFVAPEIVNYEPLGLEADMWSIGVITYILLSGASPFLGETKQETLTNISAVNYDFDEEYFSNTSELAKDFIRRLLVKDPKRRMTIAQSLEHSWIKAIRRRNVRGEDSGRKPERRRLKTTRLKEYTIKSHSSLPPNNSYA
modifications: GST fusion
Increase in muscular force (at the same submaximal calcium concentration): 40% | Contraction in the absence of calcium (permeabilized ileum strips, no calcium): does not cause contraction
